Key:
[1] = tested on: MS2 coat protein; assay: apparent KD of MS2 coat protein; higher = weaker reporter binding; conditions: Eterna round: R107
Procedure: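 RNA-MaP round R107: designed RNA switches with theophylline, tryptophan, arginine or FMN aptamers are transcribed on-chip within common flanks. They are titrated with SNAP-549-labelled MS2 coat protein in RNA-MaP buffer (100 mM Tris pH 7.5, 80 mM KCl, 4 mM MgCl2), without ligand or with the indicated ligand. Median apparent KD per design.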

[2] = tested on: K4 kissing-loop RNA reporter; assay: apparent KD of K4 kissing-loop reporter; higher = weaker reporter binding; conditions: Eterna round: R107;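 note: bound reporter read as fluorescence of individual clusters on recovered sequencing chips by microscopy, with normalized cluster intensities fitted with a binding model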
Procedure: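 RNA-MaP round R107: designed RNA switches with theophylline, tryptophan, arginine or FMN aptamers are transcribed on-chip within common flanks. They are titrated with a labelled K4 kissing-loop RNA reporter in RNA-MaP buffer (100 mM Tris pH 7.5, 80 mM KCl, 4 mM MgCl2), without ligand or with the indicated ligand. Median apparent KD per design.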

[3] = input ligand: theophylline 20 uM
[4] = input ligand: tryptophan 2.4 mM

Row | Sequence | apparent KD of MS2 coat protein ([1]; input ligand: arginine 13.2 mM) [nM] | apparent KD of MS2 coat protein ([1]; input ligand: none) [nM] | apparent KD of MS2 coat protein [1, 3] [nM] | apparent KD of MS2 coat protein ([1]; input ligand: theophylline 2 mM) [nM] | apparent KD of MS2 coat protein [1, 4] [nM] | apparent KD of K4 kissing-loop reporter ([2]; input ligand: FMN 200 uM) [nM] | apparent KD of K4 kissing-loop reporter ([2]; input ligand: arginine 13.2 mM) [nM] | apparent KD of K4 kissing-loop reporter ([2]; input ligand: none) [nM] | apparent KD of K4 kissing-loop reporter [2, 3] [nM] | apparent KD of K4 kissing-loop reporter [2, 4] [nM]
1 | AAAAUCCUACCUGAGGAUCACCCAGGUGAAGGAGCGCCCGAAAGGGCAGGUAGGUCGCACCUGAGGAUCACCCUGGUACCUAAAA [ArgAX 27 #DoubleMs2 #OpenEnded #AlternativeMS2] | 86.2 | 61 | 85.8 | 104 | 63.1 |  |  |  |  | 
2 | UGUCAUGGAAACAUGAACGUUAAAAUAAAUCGAGGACCGGUACGGCCGCCACUCGUAUAGCGGUCAGUGAUGUUGACUGUAGUAA [KL-SSTryp-A form2 sub8] |  |  |  |  |  | 99.2 | 116 | 108 | 116 | 96.8
3 | UGUCAUUGGUCGGCCGCCACUAGGACCGGGUAUAGCCUAGUGAUGUUAGUAAGUACGGCCGCCACUAGGACCGGGACCGAUGACU [KL-SSTryp-B21 #DoubleAptamer] |  |  |  |  |  | 742 | 57 | 591 | 674 | 131
4 | UGUCAUUGGUCGGCCGCCACUGAAAUAAAAGAGUGAUGUUCUUAAAAGACGGACAAAGUCUGUCAUAGGACCGGGACCGAUGACU [TrypBS 24 #SwitchBubble #StaticStem] |  |  |  |  |  | 662 | 558 | 473 | 369 | 380
5 | UGUCAUUGGUCGGCCGCCACUUCAAGGUCAAAGACCAAAGAGUGAUGUUCUAAGACGAAAGUCAGAAGGACCGGGACCGAUGACU [TrypBS 10 #SwitchBubble #K4Middle] |  |  |  |  |  | 168 | 67.7 | 128 | 223 | 1220
6 | UGUCAUUGGUCGGCCGCCACUUCAUGUAGAGUGAUGUUUUGUAGGACGGAUCGAAAGAUCUGUCGAAGGACCGGGACCGAUGACU [FiskerMod 15 - Jieux - Same State - Tryptophan B] |  |  |  |  |  | 233 | 84.7 | 197 | 235 | 1040
7 | UGUCAUUGGUCGGCCGCCACUUCGUGUAGAGUGAUGUUUUGUAGGACGGAUCGAAAGAUCUGUCGGAGGACCGGGACCGAUGACU [FiskerMod 17 - Jieux - Same State - Tryptophan B] |  |  |  |  |  | 228 | 139 | 408 | 481 | 889
8 | UGUCAUUGGUCUGAUACCAGUCCCUUGGCAGCCUAAAGGAGUGAUGUUCCAAGGAUACCAGACCCUUGGCAGCAGACCGAUGACU [TheoBS 28 #DoubleAptamer #SwitchBubble] |  |  |  |  |  | 351 | 312 | 360 | 260 | 354
9 | UGUCAUUGGUCUGAUACCAGUUAGCGCGAUAAGCGCAAAACUGGAGUGAUGUUCCCAAAUAACCCUUGGCAGCAGACCGAUGACU [MAT - Same State Theophlline B - Mod of Eli - D13] |  |  |  |  |  | 337 | 155 | 235 | 189 | 176
10 | UGUGAACAAAAGUAGAGUGGACCACUAUAGCGAGGACCGGUACGGCCGCCACUCGUACAUGAAUUCAGUGAUGUUGAAAAGAGCU [whbob_EX_Tryp_A_t13] |  |  |  |  |  | 294 | 413 | 307 | 400 | 209
11 | UGUGAACAAAAGUAGAGUGGACCACUAUAGCGAGGACCGGUACGGCCGCCACUCGUACAUGAAUUCAGUGAUGUUGAAAUGAGCU [whbob_EX_Tryp_A_t14] |  |  |  |  |  | 234 | 360 | 334 | 426 | 213
12 | UGUGAUGUGUAGUGUUAUGUUUUGCGGGAUACCAGAGUCUUUUUAUUCCCUUGGCAGCUUGAGUGAUGUUUGAUGCUGUUCUUGU [cxxdmullin] |  |  |  |  |  | 453 | 349 | 439 | 410 | 352
13 | UGUGAUGUUGUGAUGUUUAGUGUUGUUGGGCAGGAUAUUGUAGAGGCGAGAAGGGCUUGUGUGAUGUAUGAGUGAUGUUUGUAGU [cffdmullin] |  |  |  |  |  | 177 | 89.6 | 127 | 142 | 119
14 | UGUGCCAAAUGUGAUACCAGCAUCCUGCAGUGAUGUUGCAUACGAGUGAUGUUCGUCCGAUGCCCUUGGCAGCGCAGUAGUUUGA [Same State Theophylline B GF 26] |  |  |  |  |  | 264 | 263 | 307 | 326 | 239
15 | UGUGUUGUUGUGAUGUUUGGUGUUGUAGGGCAGGAUAUCGUAGAGGCGAGAAGGGCUUGUGGGCGGUAUGAGUGAUGUUUGUAGG [cfiuxmullin] |  |  |  |  |  | 116 | 77.6 | 124 | 143 | 101
16 | UUAACCAACAGCGAUACCAGCGUGGAGUGAUGUUCCGAGGAUCGGAGUGAUGUUCCGAAGCGCCCUUGGCAGCGCAGAAGCGCAA [Exclusion Theophylline B GF8] |  |  |  |  |  | 193 | 148 | 241 | 251 | 255
17 | UUAAUAUUGUCGGCCGCCACUGGAUAGUAAUUUGUAUAAUCUAUUUCAAAGUGAUGUUUUGAGUCCAGGACCGGGACAUUUGAUA [JR_Nu_ExcTryptoB_Sub030] |  |  |  |  |  | 503 | 363 | 455 | 406 | 297
18 | UUAGAGAUCUCAGGAUAUCAGUGAUGUUGAGAUUCAGAUCUGAGAUAGAAUUCUAUCUCAGAUCAAUGAGAAGGGAGAUCUCAUU [AK4.4 Exc FMN B] |  |  |  |  |  | 463 | 540 | 649 | 699 | 443
19 | UUAGAUCUUCUAGAUACCAGUCUGUGUAUCAAUGAUACACUUGACUGAGUGAUGUUCAGAGGCCCUUGGCAGCUAGAAGAUCAUU [AK1 SS Theophylline B] |  |  |  |  |  | 761 | 473 | 727 | 849 | 490
20 | UUAGGAGUGGAAGGAUAUCCUGGUGUGGGUGAUGUUAGUGAUGUUGAAAGUGCAGUGAUGUUGUGCGGAGAAGGUCCGGUGUUGA [BDazzled - #8 - Exc. FMN B] |  |  |  |  |  | 147 | 124 | 176 | 243 | 145

Row | Sequence | apparent KD of MS2 coat protein ([1]; input ligand: arginine 13.2 mM) [nM] | apparent KD of MS2 coat protein ([1]; input ligand: none) [nM] | apparent KD of MS2 coat protein [1, 3] [nM] | apparent KD of MS2 coat protein ([1]; input ligand: theophylline 2 mM) [nM] | apparent KD of MS2 coat protein [1, 4] [nM] | apparent KD of K4 kissing-loop reporter ([2]; input ligand: FMN 200 uM) [nM] | apparent KD of K4 kissing-loop reporter ([2]; input ligand: arginine 13.2 mM) [nM] | apparent KD of K4 kissing-loop reporter ([2]; input ligand: none) [nM] | apparent KD of K4 kissing-loop reporter [2, 3] [nM] | apparent KD of K4 kissing-loop reporter [2, 4] [nM]
21 | UUAGUUAGAUUAUUAUUAGCCUACAAUGCUAAGGAUAUCCGAAUUCGGAGAAGGUAGUGAUGUUACUUAAGUAGGCACUAACAUU [AK7 Exc FMN A] |  |  |  |  |  | 257 | 745 | 932 | 925 | 671
22 | UUAUCAUCAGCGGCCGCCACUGCAAAUUGGAGUGAUGUUCCAAGCGUGGAUAAUGAAAUCACUAGUAGGACCGGGUUGAUGAAUU [AK 1 Ex Trypt B] |  |  |  |  |  | 309 | 231 | 270 | 254 | 306
23 | UUGACCUACUCAGGAUAUCCGCAGUGAUGUUGCGGUUGGCCUGAGCGGCAUGAAAAUCUUACUACAGGAGAAGGGAGAGGGUUAC [Atusgeis] |  |  |  |  |  | 117 | 85.6 | 82.6 | 72.9 | 86
24 | UUGAGCCGGACUUAAGUCCGGCUCUGCGAGCGAGGACCGGUACGGCCGCCACUCGGUGCAGUGAUGUUGCAUGGCCGCAAGGCCG [#2 Exclusion - Tryptophan A Attempt #11 (HarryS)] |  |  |  |  |  | 269 | 209 | 298 | 231 | 296
25 | UUGAGCCUGACGGAAGUCAGGCUCUGCGAGCGAGGACCGGUACGGCCGCCACUCGGUGCAGUGAUGUUGCAUGGCCGCAAGGCCG [#2 Exclusion - Tryptophan A Attempt #16 (HarryS)] |  |  |  |  |  | 311 | 290 | 352 | 311 | 420
26 | UUGCCUUUGAGCGAUACCAGCAGCGUCGGCCUUAGAUUGGGAGGCAUGGCAAGUGAUGUUUGCCCUUGGCAGCGCGUAUAGUACA [theeternabot_exclusion_KL_Theo_B_7] |  |  |  |  |  | 197 | 320 | 459 | 439 | 219
27 | UUGGACCUUAGCCUCAAUAGAACUUUGUUACGAGGACCGGUACGGCCGCCACUCGUCGGGCUCCGAUAGCCAGUGAUGUUGGCAA [theeternabot_sameState_KL_Trp_A_16] |  |  |  |  |  | 429 | 405 | 693 | 1010 | 212
28 | UUGUAUACUUUUGUGUGCGAUGUGUAGCCGCGAGGACCGGUACGGCCGCCACUCGCUGAGAGUGAUGUUCUCUGGGCUAUAUAUC [Skye_SS_TA3] |  |  |  |  |  | 1100 | 924 | 1700 | 794 | 234
29 | UUUAAAUAUAGUGAUGUUAUAUAACAAUGACGAGGACCGGUACGGCCGCCACUCGAGAGAGAUAAUGAUAAAAUAAAUAAUUUUC [AstrosSSTrypA#1] |  |  |  |  |  | 480 | 654 | 643 | 628 | 374
30 | UUUAAAUAUAGUGAUGUUAUAUAACAAUGACGAGGACCGGUACGGCCGCCACUCGAGAGAGAUAAUGAUAAAAUACAUAAUUUUC [AstrosSSTrypA#2] |  |  |  |  |  | 668 | 746 | 806 | 709 | 474
31 | UUUAAAUAUAGUGAUGUUAUAUAACAAUGACGAGGACCGGUACGGCCGCCACUCGAGAGAGAUAAUGGUCUUACAAAUGUAAGUC [AstrosSSTryA#8] |  |  |  |  |  | 546 | 589 | 852 | 738 | 399
32 | UUUAACGAGUGAUGUUCGAAAAGUAAUAGUUAGGAUAUCGUUUUUUCGAGAAGGAACUUCGAAGUGAUACGAAAGUAUCGCUUCG [FMN A 1] |  |  |  |  |  | 180 | 359 | 287 | 351 | 181
33 | UUUAUAUUGUCGGCCGCCACUGGAUCAAUAUUUGUAUGAUCUAGUUCAAAGUGAUGUUUUGAGUCCAGGACCGGGACAUUUGUUA [JR_ExcTryptoB_Sub005] |  |  |  |  |  | 708 | 558 | 669 | 558 | 917
34 | UUUCGCUUCGUCUGAUAUAAUUGGCCAGAAGGAGCGGUAGAAUUACCAGGUAGGUCGCUGGCCCAGUGAUGUUGGGACUAGCGUG [Isrianve] |  |  |  |  |  | 118 | 103 | 104 | 107 | 94.1
35 | UUUCGGUUCUGAGGAUAUUCGGACAAAUAUAGUGAUGUUGUAUAAGGAGGAGGGUGUUGGGAGUGAGGAGAAGGCAGAAGAGGAU [ExFMNB.S] |  |  |  |  |  | 838 | 707 | 759 | 670 | 473
36 | UUUGAAAUGUCUGAUACCAGAGAAAAUAUAUGUAGUGAUGUUAUAUACAAAUUUAAUAAGCUCCCUUGGCAGCAGUAUGAAUUUU [AstrosExc-TheB#14] |  |  |  |  |  | 593 | 717 | 796 | 748 | 582
37 | UUUGGAAGCGGUGUUGAUUAGGGAGCGGAAGGAGCGCCGAGGAGGGCAGGUAGGUCGCCGGAAUGUAGUGAUGUUGCAUAGAGGU [ExArgA.Aa] |  |  |  |  |  | 290 | 265 | 214 | 526 | 178
38 | UUUGGUUUCUCGGCCGCCACUCGUUGUCUAUCGGCUUCAGGGAUAUAGUGAUGUUAUGUAUAGAAGAGGACCGGGAGAAGGUUCC [ExTryptoB.Dy] |  |  |  |  |  | 217 | 169 | 303 | 237 | 165
39 | UUUUUUUACUGAAGGAGCGGCAAUUGAUACGUAGAUAUAGUGAUGUUAUAUAAGAUAGAGAGCCAGGUAGGUCGCAGAUUUUUUU [ExArgB.W] |  |  |  |  |  | 153 | 171 | 163 | 167 | 147
